FireProtDB (doi:10.1038/nsb0996-782)

Conditions: Escherichia coli (strain K12); pH 5.1; 25 °C; GdnHCl; NMR; Sodium acetate 100mM; whole UniProt chain shown

B1: Ribonuclease HI wild type, P0A7Y4 (protein)
chain: MLKQVEIFTDGSCLGNPGPGGYGAILRYRGREKTFSAGYTRTTNNRMELMAAIVALEALKEHCEVILSTDSQYVRQGITQWIHNWKKRGWKTADKKPVKNVDLWQRLDAALGQHQIKWEWVKGHAGHPENERCDELARAAAMNPTLEDTGYQVEV
B1 gave an unfolding free energy of 10.5 kcal/mol.
